US20200181251A1 (SCHOLAR ROCK, published 2020)

Molecular target: T1, LRRC33 (Leucine-rich repeat-containing protein 33) (human, UniProt Q86YC3 19-692)
T1 construct: Endogenous LRRC33 on the surface of PMA-stimulated THP1 cells; On cells it may be complexed with proTGFb1; also called NRROS; Negative Regulator of Reactive Oxygen Species
T1 sequence: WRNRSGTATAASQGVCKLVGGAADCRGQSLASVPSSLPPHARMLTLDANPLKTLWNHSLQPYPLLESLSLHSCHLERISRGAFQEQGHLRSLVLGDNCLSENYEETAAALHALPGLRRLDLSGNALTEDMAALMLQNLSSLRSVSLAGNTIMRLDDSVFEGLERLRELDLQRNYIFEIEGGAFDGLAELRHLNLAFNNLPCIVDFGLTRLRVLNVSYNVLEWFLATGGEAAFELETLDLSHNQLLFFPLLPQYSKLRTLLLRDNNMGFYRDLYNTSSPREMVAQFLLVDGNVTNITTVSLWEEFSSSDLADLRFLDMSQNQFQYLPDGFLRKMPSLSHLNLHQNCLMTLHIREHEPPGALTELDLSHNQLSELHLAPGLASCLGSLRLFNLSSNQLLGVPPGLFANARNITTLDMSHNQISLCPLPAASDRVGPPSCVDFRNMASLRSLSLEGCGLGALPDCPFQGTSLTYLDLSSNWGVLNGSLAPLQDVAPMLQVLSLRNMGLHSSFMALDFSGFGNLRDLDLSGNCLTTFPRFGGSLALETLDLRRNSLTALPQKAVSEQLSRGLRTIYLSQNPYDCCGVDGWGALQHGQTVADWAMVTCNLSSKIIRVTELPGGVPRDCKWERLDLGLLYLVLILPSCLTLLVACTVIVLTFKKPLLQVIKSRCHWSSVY
Assay: staining of PMA-stimulated THP1 cells with 10 ug/mL antibody, detected with fluorophore conjugated secondary antibody (internalization assay)
Method: FIG. 15 provides results from an internalization study. THP1 cells were stimulated overnight with PMA to induce LRRC33 surface expression and adherence to tissue culture plastic. The next day, cells were stained with antibodies at 10 ug/mL for 1 hour. A subset of cells were washed and moved to cell culture media and to 37° C. for 1 hour or two hours, while another subset (time 0) were immediately fixed. Another subset of cells were washed and kept at 4° C. Internalization was detected by using fluorophore conjugated secondary antibodies against the primary antibody isotypes. Gemtuzumab and SRL1, a human specific mouse antibody against LRRC33, internalize similarly.

binding result: binds
B1: SRL1 (antibody, V domains shown)
VH: EVQLQQSGTVLARPGASVKMSCKASGYTFTYYWMQWVKQRPGQGLEWIGAIYPGNSDTTYNQKFKGKAKLTAVTSTSTAYMELSSLTNEDSAVYYCTNTNWEAMDYWGQGTSVTVSS
VL: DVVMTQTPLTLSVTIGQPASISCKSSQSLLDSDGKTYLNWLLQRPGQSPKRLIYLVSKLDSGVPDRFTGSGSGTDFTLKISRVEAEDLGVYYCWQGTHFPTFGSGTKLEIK
notes: also called LRRC33 antibody SRL1
